Assay results as given in PMC8565734, “Construction of ferritin hydrogels utilizing subunit–subunit interactions” (PLoS ONE, 2021).

Molecular target: the molecule itself
Assay: SEC; Superdex 200 increase 10/300 GL, 50 mM potassium phosphate buffer, pH 7.0, 4°C; solution obtained after heating the apoferritin hydrogel at 90°C for 30 min; sizes estimated from a standard curve of standard proteins

B1: horse L apoferritin without eight N-terminal residues (Fer8) (domain or fragment, UniProt P02791 9-175, looked up)
chain: YSTEVEAAVNRLVNLYLRASYTYLSLGFYFDRDDVALEGVCHFFRELAEEKREGAERLLKMQNQRGGRALFQDLQKPSQDEWGTTLDAMKAAIVLEKSLNQALLDLHALGSAQADPHLCDFLESHFLDEEVKLIKKMGDHLTNIQRLVGSQAGLGEYLFERLTLKHD
notes: horse L ferritin (ferritin light chain), printed as 'without eight N-terminal residues'; theoretical [Fer8 subunit + H+] = 19148; The limit 9-end follows from 'without eight N-terminal residues'; also called recombinant horse apoferritin; Fer8 subunit; source: E. coli Nova blue cells (plasmid pKIT8), purified (heat 60°C, Q Sepharose, HiTrap Q HP, SEC); gelled by acid denaturation and …
stoichiometry N: 24
